# Source: publication PMC12421377, “Molecular basis for the recognition of low-frequency polyadenylation signals by mPSF”
# B1: AGUAAA 12-mer (ssRNA)
# RNA: UGCAGUAAACAA
# B2: AUUAAA 12-mer (ssRNA)
# RNA: UGCAUUAAACAA
# B3: GAUAAA 12-mer (ssRNA)
# RNA: UGCGAUAAACAA
# B4: AAUAAG 12-mer (ssRNA)
# RNA: UGCAAUAAGCAA
# B5: AAUAAA 12-mer (ssRNA)
# RNA: UGCAAUAAACAA
# B6: AAUAGA 12-mer (ssRNA)
# RNA: UGCAAUAGACAA
# B7: AAUACA 12-mer (ssRNA)
# RNA: UGCAAUACACAA
# B8: AAUGAA 12-mer (ssRNA)
# RNA: UGCAAUGAACAA
# B9: CUAUAAA-context UAUAAA 12-mer (ssRNA)
# RNA: UGCUAUAAACAA
# B10: AACAAA 12-mer (ssRNA)
# RNA: UGCAACAAACAA
# B11: ACUAAA 12-mer (ssRNA)
# RNA: UGCACUAAACAA
# B12: AAUAUA 12-mer (ssRNA)
# RNA: UGCAAUAUACAA
# B13: AAUAAU 12-mer (ssRNA)
# RNA: UGCAAUAAUCAA
# B14: AAGAAA 12-mer (ssRNA)
# RNA: UGCAAGAAACAA
# B15: AUUAUA 12-mer (ssRNA)
# RNA: UGCAUUAUACAA
# B16: CAUAAA 12-mer (ssRNA)
# RNA: UGCCAUAAACAA
# Legend:
# Settings in all cases: protein: recombinant; copies: 1;1;1;1
# [1] = biological target: T1, mPSF (CPSF160-WDR33-CPSF30-Fip1) (human, UniProt Q10570;Q9C0J8;O95639-2;Q6UN15 1-1443;1-572;1-244;1-594); assay: cryo-EM structure (2.5 A); RNA up to 40 uM, mPSF 1.4 uM; 20 mM Tris pH 8.0, 150 mM NaCl, 10 mM DTT, 100 nM BSA, 0.01% NP-40; 45 min on ice, read at room temperature; triplicates
# T1 sequence (Q10570 whole entry, chain 1 of 4): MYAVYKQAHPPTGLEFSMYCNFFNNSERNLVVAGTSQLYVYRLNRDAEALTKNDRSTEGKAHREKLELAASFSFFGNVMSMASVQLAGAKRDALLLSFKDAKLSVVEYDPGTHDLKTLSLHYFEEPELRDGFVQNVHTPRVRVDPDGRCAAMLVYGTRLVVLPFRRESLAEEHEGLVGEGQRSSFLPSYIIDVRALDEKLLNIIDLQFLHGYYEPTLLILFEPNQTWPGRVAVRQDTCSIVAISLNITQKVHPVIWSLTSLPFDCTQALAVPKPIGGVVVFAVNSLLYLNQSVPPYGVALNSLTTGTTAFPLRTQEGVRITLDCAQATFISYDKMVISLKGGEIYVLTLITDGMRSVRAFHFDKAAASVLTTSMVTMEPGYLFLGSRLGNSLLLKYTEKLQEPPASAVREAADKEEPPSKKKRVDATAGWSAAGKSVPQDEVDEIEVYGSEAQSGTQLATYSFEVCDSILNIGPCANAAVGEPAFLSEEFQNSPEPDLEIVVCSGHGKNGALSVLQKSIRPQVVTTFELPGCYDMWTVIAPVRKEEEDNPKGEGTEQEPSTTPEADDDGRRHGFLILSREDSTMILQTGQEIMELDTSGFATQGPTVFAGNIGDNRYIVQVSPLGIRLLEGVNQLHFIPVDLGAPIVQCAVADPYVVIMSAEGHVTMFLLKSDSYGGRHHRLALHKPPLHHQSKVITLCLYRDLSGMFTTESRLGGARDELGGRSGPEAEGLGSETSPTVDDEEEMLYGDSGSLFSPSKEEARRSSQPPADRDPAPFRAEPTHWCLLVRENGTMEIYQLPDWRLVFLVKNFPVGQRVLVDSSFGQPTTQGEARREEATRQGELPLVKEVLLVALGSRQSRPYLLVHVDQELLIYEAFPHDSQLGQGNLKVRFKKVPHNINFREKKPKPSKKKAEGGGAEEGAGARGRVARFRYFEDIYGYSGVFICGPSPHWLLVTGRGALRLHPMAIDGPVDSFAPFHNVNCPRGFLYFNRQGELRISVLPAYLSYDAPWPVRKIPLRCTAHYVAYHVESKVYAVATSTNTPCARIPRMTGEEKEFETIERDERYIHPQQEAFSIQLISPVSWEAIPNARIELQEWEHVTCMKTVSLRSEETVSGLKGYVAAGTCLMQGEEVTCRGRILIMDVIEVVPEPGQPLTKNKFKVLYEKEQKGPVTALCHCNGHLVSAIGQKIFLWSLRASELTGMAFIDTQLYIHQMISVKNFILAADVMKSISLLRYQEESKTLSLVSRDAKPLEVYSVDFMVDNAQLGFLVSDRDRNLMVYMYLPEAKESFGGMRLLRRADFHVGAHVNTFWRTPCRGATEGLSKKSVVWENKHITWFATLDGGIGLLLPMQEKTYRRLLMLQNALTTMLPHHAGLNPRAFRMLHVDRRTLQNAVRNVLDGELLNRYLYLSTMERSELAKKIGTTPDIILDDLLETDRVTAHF
# T1 sequence (Q9C0J8 1-572, chain 2 of 4): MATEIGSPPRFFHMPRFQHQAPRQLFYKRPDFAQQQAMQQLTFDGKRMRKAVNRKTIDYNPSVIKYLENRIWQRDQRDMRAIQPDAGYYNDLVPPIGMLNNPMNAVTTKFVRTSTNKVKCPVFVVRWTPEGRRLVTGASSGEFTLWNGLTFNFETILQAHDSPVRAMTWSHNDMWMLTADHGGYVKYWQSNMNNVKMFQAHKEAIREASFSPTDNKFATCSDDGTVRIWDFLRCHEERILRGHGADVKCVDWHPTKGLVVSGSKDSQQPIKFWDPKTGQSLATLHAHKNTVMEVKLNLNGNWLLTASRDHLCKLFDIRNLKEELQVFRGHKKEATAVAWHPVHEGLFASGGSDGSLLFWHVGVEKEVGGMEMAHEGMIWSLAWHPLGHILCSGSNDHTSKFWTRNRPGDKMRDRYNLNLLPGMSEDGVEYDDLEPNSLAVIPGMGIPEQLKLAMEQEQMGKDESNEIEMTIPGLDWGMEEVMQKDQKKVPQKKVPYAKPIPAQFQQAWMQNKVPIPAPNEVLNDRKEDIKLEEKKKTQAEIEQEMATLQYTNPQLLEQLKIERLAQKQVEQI
# T1 sequence (O95639 other isoform, or with tags, fused parts or gaps, chain 3 of 4): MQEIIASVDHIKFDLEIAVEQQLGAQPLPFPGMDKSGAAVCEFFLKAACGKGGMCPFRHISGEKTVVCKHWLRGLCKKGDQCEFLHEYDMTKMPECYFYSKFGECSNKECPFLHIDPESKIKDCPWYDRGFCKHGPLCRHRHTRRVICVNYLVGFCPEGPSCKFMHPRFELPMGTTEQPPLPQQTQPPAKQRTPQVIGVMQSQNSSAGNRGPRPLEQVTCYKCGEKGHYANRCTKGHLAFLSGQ
# T1 sequence (Q6UN15 whole entry, chain 4 of 4): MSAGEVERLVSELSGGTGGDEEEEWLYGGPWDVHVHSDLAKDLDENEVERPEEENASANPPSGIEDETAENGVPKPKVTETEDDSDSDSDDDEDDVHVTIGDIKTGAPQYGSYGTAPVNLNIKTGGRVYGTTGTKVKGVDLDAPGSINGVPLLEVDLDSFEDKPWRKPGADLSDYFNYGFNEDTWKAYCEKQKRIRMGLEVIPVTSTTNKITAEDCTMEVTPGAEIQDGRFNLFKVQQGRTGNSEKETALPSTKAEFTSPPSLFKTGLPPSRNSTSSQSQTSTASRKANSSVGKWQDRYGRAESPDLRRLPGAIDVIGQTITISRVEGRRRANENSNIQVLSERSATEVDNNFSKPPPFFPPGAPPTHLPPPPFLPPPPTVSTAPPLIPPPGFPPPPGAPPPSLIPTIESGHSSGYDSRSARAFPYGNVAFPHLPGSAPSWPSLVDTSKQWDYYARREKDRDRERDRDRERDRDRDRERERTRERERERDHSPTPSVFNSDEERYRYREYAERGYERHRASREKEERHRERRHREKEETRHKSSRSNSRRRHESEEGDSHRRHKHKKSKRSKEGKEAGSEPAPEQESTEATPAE
# [2] = biological target: T1, mPSF (CPSF160-WDR33-CPSF30-Fip1); assay: competition fluorescence anisotropy; vs FAM-AAUAAA; 20 mM Tris pH 8.0, 150 mM NaCl, 10 mM DTT, 100 nM BSA, 0.01% NP-40; 45 min on ice, read at room temperature; triplicates
# [3] = biological target: T1, mPSF (CPSF160-WDR33-CPSF30-Fip1); assay: competition fluorescence anisotropy; vs 3 nM FAM-AAUAAA, 30 nM mPSF; 20 mM Tris pH 8.0, 150 mM NaCl, 10 mM DTT, 100 nM BSA, 0.01% NP-40; 45 min on ice, read at room temperature; triplicates
# [4] = biological target: T1, mPSF (CPSF160-WDR33-CPSF30-Fip1); assay: cryo-EM structure (3.1 A); RNA up to 40 uM, mPSF 1.4 uM; 20 mM Tris pH 8.0, 150 mM NaCl, 10 mM DTT, 100 nM BSA, 0.01% NP-40; 45 min on ice, read at room temperature; triplicates
Binder,Kd [2] [nM],other results
B1,–,binding result [1]: binds
B2,79,–
B3,580,–
B4,11500,–
B5,–,Kd [3]: 40 nM
B6,2000,–
B7,2200,–
B8,1180,–
B9,520,–
B10,13000,–
B11,2700,–
B12,2500,–
B13,–,binding result [4]: binds
B14,1870,–
B15,2140,–
B16,780,–
